Key:
[1] = target: fully lipid-modified Shh secreted by human HT29 cells (human) (UniProt Q15465); assay: cell-based or functional assay
[2] = target: biotinylated-ShhN-Cys (human Shh residues 24-197, N-terminal His6-tag, biotin conjugated) (human) (UniProt Q15465); assay: competition ELISA: 5E1 against immobilized Hhip1β12 for biotinylated ShhN-Cys
[3] = target: Shh649 (ShhC-Cys conjugated with DyLight 649 Maleimide) (human) (UniProt Q15465); assay: FACS competition: 1 nM Shh649 preincubated with 5E1, then bound to Ptch1-expressing 293 cells; the blocked partner is Ptch1
[4] = target: Shh (human Sonic hedgehog residues 25-197, N-terminal His6-tag) (human) (UniProt Q15465); assay: SPR (BIAcore-2000), 5E1 IgG immobilized on CM5, Hh injected, 1:1 Langmuir fit
[5] = target: Human Ihh (residues 29-202), N-terminal His6-tag (human) (UniProt Q14623); assay: as above
Human Ihh (residues 29-202), N-terminal His6-tag (human), sequence (Q14623 other isoform, or with tags, fused parts or gaps limits assumed): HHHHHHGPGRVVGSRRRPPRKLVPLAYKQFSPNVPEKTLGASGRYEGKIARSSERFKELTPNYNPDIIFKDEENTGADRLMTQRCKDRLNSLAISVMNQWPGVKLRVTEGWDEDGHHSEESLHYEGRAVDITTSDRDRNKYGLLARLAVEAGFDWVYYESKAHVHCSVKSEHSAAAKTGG

Substance: Hhip1ECD (Hhip1 extracellular domain, residues 20-667), N-terminally His6-tagged (from UniProt Q96QV1 20-667) (receptor)
- IC50, inhibition of Gli-luciferase activity in HT29/S12 co-culture [1]: 5.3 nM

Substance: anti-Shh monoclonal antibody 5E1
- IC50 [2]: 23 nM
- IC50 (read off the curve) [3]: 0.5 nM
- Kd [4]: 3 nM
- Kd [5]: 3 nM
